Test results from patent US20250186594A1.
pKd: −log10 of the molar value.

Experiments:
[1] = target: His-tagged human IL-18BP (human) (UniProt O95998); assay: AlphaLISA of free IL-18BP (signal at 615 nm) after incubation of His-tagged human IL-18BP with a dilution series of the IL-18 polypeptide
[2] = target: Fc fused human IL-18BP isoform a (IL-18BPa) (human) (UniProt O95998); assay: SPR, Fc-IL-18BPa captured, 1:1 fit
[3] = target: His-tagged human IL-18BP (human) (UniProt O95998); assay: AlphaLISA of free IL-18BP

Chain of Fc fused human IL-18BP isoform a (IL-18BPa) (human) (O95998 31-194): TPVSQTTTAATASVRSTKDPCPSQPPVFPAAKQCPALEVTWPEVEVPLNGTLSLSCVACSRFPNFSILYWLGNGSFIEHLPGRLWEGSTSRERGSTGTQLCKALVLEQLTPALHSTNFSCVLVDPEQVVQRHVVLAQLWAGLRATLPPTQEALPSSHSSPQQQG
Chain of Native IL-18 wild-type (SEQ ID NO: 1, native sequence) (Q14116 37-193): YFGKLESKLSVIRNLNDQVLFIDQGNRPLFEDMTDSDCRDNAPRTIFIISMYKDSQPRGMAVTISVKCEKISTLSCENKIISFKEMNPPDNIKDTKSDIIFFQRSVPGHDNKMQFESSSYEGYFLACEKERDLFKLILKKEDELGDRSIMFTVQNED

Row | Substance | IC50 (read off the curve) [1] | pKd [2] | koff [2] | kon [2] | pKd [3]
1 | IL-18 variant SEQ ID NO: 30 (E6K, V11I, C38A, K53A, T63A, C76A, C127A) (from UniProt Q14116 37-193) (ligand) | 8 nM | 8.52 | 0.00345 s⁻¹ | 1.05e+06 M⁻¹ s⁻¹ | 7.61
2 | IL-18 variant SEQ ID NO: 62 (E6K, C38A, K53A, C127A) (from UniProt Q14116 37-193) (ligand) | – | 8.71 | 0.00315 s⁻¹ | 1.61e+06 M⁻¹ s⁻¹ | 7.16
3 | IL-18 variant SEQ ID NO: 62 with 30 kDa PEG (E6K, C38A, K53A, C127A, C68-30kPEG) (from UniProt Q14116 37-193) (ligand) | – | 7.62 | 0.00342 s⁻¹ | 142000 M⁻¹ s⁻¹ | 7.53

Substances with a higher pKd [2], results first:

Row | IC50 (read off the curve) [1] | pKd [2] | koff [2] | kon [2] | pKd [3] | Substance
4 | – | 8.82 | 0.00424 s⁻¹ | 2.82e+06 M⁻¹ s⁻¹ | 7.69 | IL-18 variant SEQ ID NO: 63 (E6K, C38A, K53A, C76A, C127A) (from UniProt Q14116 37-193) (ligand)
5 | 0.6 nM | 9.61 | 0.00038 s⁻¹ | 1.28e+06 M⁻¹ s⁻¹ | 9.39 | Native IL-18 wild-type (SEQ ID NO: 1, native sequence) (from UniProt Q14116 37-193) (ligand)
